According to publication PMC12247212 (RSC Chemical Biology, 2025):

Columns and labels:
CD16a-mMBP [1] = target: T1, CD16a-mMBP (Homo sapiens, allotype  …, UniProt P08637); test: BLI; SpyBLI single-cycle kinetics, Octet-K2; purified SpyTagged nanobody or scFv loaded at 100 nM onto biotinylated SpyCatcher003 S49C on streptavidin sensors; purified antigen as analyte at five increasing concentrations; 30 °C, 1000 rpm, PBS pH 7.5, 0.05% Tween-20; 1:1 standard model (1:1 partial dissociation model for Nb24); averages of three independent experiments; details: both partners purified
T1 construct: monovalent antigen; MW ~63 kDa; also called CD16a (FCGR3A); FcγRIIIa; source: Expi293F, transfected (pcDNA3.4 without SpyTag003), harvested 6 days post-transfection, purified

CD16a-mMBP [2] = target: T1, CD16a-mMBP; test: BLI; SpyBLI single-cycle kinetics, Octet-K2; SpyTagged nanobody or scFv loaded from crude mammalian cell supernatant (1:1 with PBS + 0.05% Tween-20) onto biotinylated SpyCatcher003 S49C on streptavidin sensors; purified antigen as analyte at five increasing concentrations; 30 °C, 1000 rpm, PBS pH 7.5, 0.05% Tween-20; 1:1 standard model (1:1 partial dissociation model for Nb24); averages of three independent …; details: one partner purified
CD16a-mMBP [3] = target: T1, CD16a-mMBP; test: BLI; SpyBLI single-cycle kinetics, Octet-K2; SpyTagged nanobody or scFv loaded from cell-free reaction blend (diluted 100-fold in PBS + 0.05% Tween-20) onto biotinylated SpyCatcher003 S49C on streptavidin sensors; purified antigen as analyte at five increasing concentrations; 30 °C, 1000 rpm, PBS pH 7.5, 0.05% Tween-20; 1:1 standard model (1:1 partial dissociation model for Nb24); averages of three independent …; details: one partner purified
hen egg-white lysozyme = target: T2, hen egg-white lysozyme (Gallus gallus, UniProt P00698); test: as above; details: one partner purified
T2 construct: lysozyme from chicken egg-white, Sigma-Aldrich 62971; also called Lysozyme from chicken egg-white; source: bought: Sigma-Aldrich (62971); further purified by SEC (Superdex 75 Increase)

β2-microglobulin [4] = target: T3, β2-microglobulin (Homo sapiens (assumed), UniProt P61769); test: BLI; SpyBLI single-cycle kinetics, Octet-K2; purified SpyTagged nanobody or scFv loaded at 100 nM onto biotinylated SpyCatcher003 S49C on streptavidin sensors; purified antigen as analyte at five increasing concentrations; 30 °C, 1000 rpm, PBS pH 7.5, 0.05% Tween-20; 1:1 standard model (1:1 partial dissociation model for Nb24); averages of three independent experiments; details: both partners purified
T3 construct: β2-microglobulin, recombinant; MW ~12 kDa

β2-microglobulin [5] = target: T3, β2-microglobulin; test: BLI; SpyBLI single-cycle kinetics, Octet-K2; SpyTagged nanobody or scFv loaded from crude mammalian cell supernatant (1:1 with PBS + 0.05% Tween-20) onto biotinylated SpyCatcher003 S49C on streptavidin sensors; purified antigen as analyte at five increasing concentrations; 30 °C, 1000 rpm, PBS pH 7.5, 0.05% Tween-20; 1:1 standard model (1:1 partial dissociation model for Nb24); averages of three independent …; details: one partner purified
β2-microglobulin [6] = target: T3, β2-microglobulin; test: BLI; SpyBLI single-cycle kinetics, Octet-K2; SpyTagged nanobody or scFv loaded from cell-free reaction blend (diluted 100-fold in PBS + 0.05% Tween-20) onto biotinylated SpyCatcher003 S49C on streptavidin sensors; purified antigen as analyte at five increasing concentrations; 30 °C, 1000 rpm, PBS pH 7.5, 0.05% Tween-20; 1:1 standard model (1:1 partial dissociation model for Nb24); averages of three independent …; details: one partner purified

T3 sequence (P61769 21-119): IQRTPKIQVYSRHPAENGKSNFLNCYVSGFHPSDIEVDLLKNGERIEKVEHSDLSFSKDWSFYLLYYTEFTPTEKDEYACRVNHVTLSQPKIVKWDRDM
T2 sequence (P00698 19-147): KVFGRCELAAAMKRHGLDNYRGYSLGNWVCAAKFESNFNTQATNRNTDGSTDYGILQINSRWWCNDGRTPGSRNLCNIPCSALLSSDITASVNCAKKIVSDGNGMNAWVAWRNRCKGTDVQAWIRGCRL
T1 sequence (P08637 17-254): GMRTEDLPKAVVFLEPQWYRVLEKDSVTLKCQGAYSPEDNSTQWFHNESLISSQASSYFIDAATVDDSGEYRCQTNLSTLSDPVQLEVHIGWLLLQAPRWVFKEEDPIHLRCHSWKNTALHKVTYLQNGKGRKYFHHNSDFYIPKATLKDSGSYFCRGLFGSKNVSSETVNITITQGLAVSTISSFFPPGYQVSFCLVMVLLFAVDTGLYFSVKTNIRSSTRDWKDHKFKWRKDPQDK

B1: anti-CD16a scFv, SpyTagged (mammalian expression) (scFv, V domains shown)
VH: EVQLVQSGAEVKKPGESLKVSCKASGYTFTSYYMHWVRQAPGQGLEWMGAIEPMYGSTSYAQKFQGRVTMTRDTSTSTVYMELSSLRSEDTAVYYCARGSAYYYDFADYWGQGTLVTVSS
VL: SYVLTQPSSVSVAPGQTATISCGGHNIGSKNVHWYQQRPGQSPVLVIYQDNKRPSGIPERFSGSNSGNTATLTISGTQAMDEADYYCQVWDNYSVLFGGGTKLTVL
notes: scFv of the FcγRIIIa-targeting arm of RO7297089; (G3S)2 linker between the scFv and SpyTag003; also called FcγRIIIa-targeting arm of the bispecific antibody RO7297089; source: Expi293F, transfected (pcDNA3.4); purified (His Mag Sepharose Excel, SEC) or used directly as crude mammalian cell supernatant; not shown: SpyTag003 (after a (G3S)2 linker), C-terminal, kept
Kd (CD16a-mMBP [1]): 6.7 nM | koff (CD16a-mMBP [1]): 0.00113 s⁻¹ | kon (CD16a-mMBP [1]): 171000 M⁻¹ s⁻¹ | Kd (CD16a-mMBP [2]): 4.3 nM | koff (CD16a-mMBP [2]): 0.00081 s⁻¹ | kon (CD16a-mMBP [2]): 187000 M⁻¹ s⁻¹

B2: anti-CD16a scFv, SpyTagged (cell-free expression) (scFv, V domains shown)
VH: EVQLVQSGAEVKKPGESLKVSCKASGYTFTSYYMHWVRQAPGQGLEWMGAIEPMYGSTSYAQKFQGRVTMTRDTSTSTVYMELSSLRSEDTAVYYCARGSAYYYDFADYWGQGTLVTVSS
VL: SYVLTQPSSVSVAPGQTATISCGGHNIGSKNVHWYQQRPGQSPVLVIYQDNKRPSGIPERFSGSNSGNTATLTISGTQAMDEADYYCQVWDNYSVLFGGGTKLTVL
notes: as the scFv of m3; The cell-free fragment design has an optional His-tag; not shown: SpyTag003 (after a (G3S)2 linker), C-terminal, kept
Kd (CD16a-mMBP [3]): 8.1 nM | koff (CD16a-mMBP [3]): 0.0018 s⁻¹ | kon (CD16a-mMBP [3]): 220000 M⁻¹ s⁻¹

B3: cAb-Lys3, SpyTagged nanobody (VHH)
VHH: DVQLQASGGGSVQAGGSLRLSCAASGYTIGPYCMGWFRQAPGKEREGVAAINMGGGITYYADSVKGRFTISQDNAKNTVYLLMNSLEPEDTAIYYCAADSTIYASYYECGHGLSTGGYGYDSWGQGTQVTVSS
notes: nanobody cAb-Lys3; The cell-free fragment design has an optional His-tag; also called Nb cAb-Lys3; not shown: SpyTag003 (after a (G3S)2 linker), C-terminal, kept
Kd (hen egg-white lysozyme): 0.67 nM | koff (hen egg-white lysozyme): 0.00116 s⁻¹ | kon (hen egg-white lysozyme): 1.7e+06 M⁻¹ s⁻¹

B4: Nb24, SpyTagged nanobody (mammalian expression) (VHH)
VHH: QVQLQESGGGSVQAGGSLRLSCAASGYTDSRYCMAWFRQAPGKEREWVARINSGRDITYYADSVKGRFTFSQDNAKNTVYLQMDSLEPEDTATYYCATDIPLRCRDIVAKGGDGFRYWGQGTQVTVSS
notes: nanobody Nb24; (G3S)2 linker between the nanobody and SpyTag003; Covalently captured on biotinylated SpyCatcher003 S49C on streptavidin sensors; also called anti-β2-microglobulin nanobody Nb24; Nb24-SpyTag003; source: Expi293F, transfected (pcDNA3.4); purified (His Mag Sepharose Excel, SEC) or used directly as crude mammalian cell supernatant; not shown: SpyTag003 (after a (G3S)2 linker), …
Kd (β2-microglobulin [4]): 49.6 nM | koff (β2-microglobulin [4]): 0.0112 s⁻¹ | kon (β2-microglobulin [4]): 230000 M⁻¹ s⁻¹ | Kd (β2-microglobulin [5]): 50 nM | koff (β2-microglobulin [5]): 0.0114 s⁻¹ | kon (β2-microglobulin [5]): 240000 M⁻¹ s⁻¹

B5: Nb24, SpyTagged nanobody (cell-free expression) (VHH)
VHH: QVQLQESGGGSVQAGGSLRLSCAASGYTDSRYCMAWFRQAPGKEREWVARINSGRDITYYADSVKGRFTFSQDNAKNTVYLQMDSLEPEDTATYYCATDIPLRCRDIVAKGGDGFRYWGQGTQVTVSS
notes: nanobody Nb24; as the VHH of m1; The cell-free fragment design has an optional His-tag; also called Nb24-SpyTag003; not shown: SpyTag003 (after a (G3S)2 linker), C-terminal, kept
Kd (β2-microglobulin [6]): 63.8 nM | koff (β2-microglobulin [6]): 0.014 s⁻¹ | kon (β2-microglobulin [6]): 220000 M⁻¹ s⁻¹
